Laboratory results taken from patent US20160298109A1.

B1: GP2 (peptide)
chain: RRRNVPLILGGGGGGSGGSGK
B2: GP3 (peptide)
peptide: SYSFCPRRQGGGGGGSGGSGK
modifications: not checked
B3: GP16 (peptide)
peptide: LWCRRLNLLGGGGGGSGGSGK
modifications: not checked
B4: GP11 (peptide)
chain: LLALSAYMVGGGGGGSGGSGK

Legend:
[1] = biological target: GP120 (HIV-1 JRFL); test: SPR; details: chains peptide; modification not given
[2] = biological target: gp120 of HIV-1 BaL (HIV-1 BaL); test: cell-based or functional assay
[3] = biological target: HIV-1 JRFL gp120 protein (HIV-1 JRFL); test: peptide blocking ELISA: coated gp120 pre-incubated with GP3 (125 ng), then recombinant CCR5-GST, anti-GST HRP; competitor CCR5

| Binder | Kd [1] [µM] | inhibition of HIV-1 BaL infection (p24+ CD4 T cells), peptide without streptavidin, 100 µM [2] [%] | inhibition of HIV-1 BaL infection (p24+ CD4 T cells), peptide without streptavidin, 250 µM [2] [%] | reduction in absorbance (CCR5 binding to gp120) [3] [%] | inhibition of HIV-1 BaL infection (p24+ CD4 T cells), peptide without streptavidin, 50 µM [2] [%] | viral inhibition, peptide conjugated with streptavidin, 50 µM [2] [%] |
| --- | --- | --- | --- | --- | --- | --- |
| B1 | 76.1 |  |  |  |  |  |
| B2 | 39.1 | 34.5 | 54.7 | 65.8 |  |  |
| B3 | 42.7 | < 1 | 50 |  | < 1 | 62.6 |
| B4 | 48.3 |  |  |  |  |  |
